Some targets named below: rVλ6Wil fibrils; SHI ALλ liver extract; TAL ALκ liver extract.
Holding throughout (assay): EuLISA
For test [1], the target named is KEN hATTR extract (human) (UniProt P02766).
In test [2] the target is Per125 wtATTR extract (human) (UniProt P02766).

pEC50: −log10 of the molar value.

Consider chimeric antibody c11-1F4, for which, in test [1], the LogEC50 is -1.36 -log(M) and the Max stood at 19700.
Take hIgG1 (antibody): the pEC50 with rVλ6Wil fibrils was 5.89. For the same substance, the LogEC50 with rVλ6Wil fibrils is 5.89 -log(M); in test [1] it was 9.06 -log(M); in test [2], 7.92 -log(M); with SHI ALλ liver extract, 7.88 -log(M); in the test with TAL ALκ liver extract, 3 -log(M). The Max in the test with rVλ6Wil fibrils was 39.3; in test [1] it was -0.8; in test [2], 8.38; with SHI ALλ liver extract it was 2.5; with TAL ALκ liver extract, 2220.
As for m11-1F4 (antibody), in test [1], the LogEC50 is 2.39 -log(M) and the Max stood at 294000.

(Values after patent publication US20230416347A1.)
